For one experiment, the target named is T1, mouse NaPi2b (mouse, UniProt Q9DBP0 1-697).
T1 construct: Transiently expressed on HEK293-6e cells; also called Ms NaPi2b
T1 sequence: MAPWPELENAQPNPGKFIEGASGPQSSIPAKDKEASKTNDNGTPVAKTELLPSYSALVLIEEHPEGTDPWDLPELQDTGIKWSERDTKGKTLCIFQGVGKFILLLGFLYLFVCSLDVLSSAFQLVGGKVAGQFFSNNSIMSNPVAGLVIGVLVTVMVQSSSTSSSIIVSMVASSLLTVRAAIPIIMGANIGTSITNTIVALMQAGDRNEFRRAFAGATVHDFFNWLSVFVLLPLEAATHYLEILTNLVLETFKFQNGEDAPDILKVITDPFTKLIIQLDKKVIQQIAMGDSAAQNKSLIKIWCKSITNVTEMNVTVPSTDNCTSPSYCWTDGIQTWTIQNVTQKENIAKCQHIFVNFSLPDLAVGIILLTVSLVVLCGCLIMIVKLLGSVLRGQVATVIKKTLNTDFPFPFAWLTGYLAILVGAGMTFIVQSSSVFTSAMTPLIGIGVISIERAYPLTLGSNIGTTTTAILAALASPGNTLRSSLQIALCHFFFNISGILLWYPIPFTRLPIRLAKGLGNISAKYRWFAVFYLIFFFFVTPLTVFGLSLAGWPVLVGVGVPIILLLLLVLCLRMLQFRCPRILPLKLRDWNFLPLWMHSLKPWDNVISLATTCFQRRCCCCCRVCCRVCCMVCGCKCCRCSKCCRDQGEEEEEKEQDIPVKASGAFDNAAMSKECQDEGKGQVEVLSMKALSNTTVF
Nature of the experiment: flow cytometry, HEK293-6e cells transfected with mouse NaPi2b; apparent Kd. How it is done: (§1) The binding cross-reactivity of humanized antibody variant v29456 to human, cynomolgus and mouse NaPi2b was assessed by flow cytometry using HEK293-6e transfected cells.
(§2) Briefly, HEK293-6e cells were transfected for ˜24 hours to transiently express human NaPi2b, cynomolgus or mouse NaPi2b, at 1 μg of DNA per 1 million cells. Following transfection, 50,000 cells per well were seeded in V-bottom 96-well plates and incubated with 200 nM of primary antibody for 18-24 hours at 4° C. to prevent internalization. Post-incubation, cells were washed and stained with anti-Human IgG Fc AF647 conjugate (Jackson Immuno Research Labs, West Grove, PA, Cat. No. 109-605-098, Lot. No. 124868) at 4° C. for 1 hour. Following staining and washing, fluorescence was detected by flow cytometry on BD LSRFortessa™ Cell Analyzer (BD Biosciences, Franklin Lake, NJ) with 10,000 minimum events collected per well. The AF647/APC-A GeoMean (fluorescence signal geometric mean, proportional to anti-Human AF647 binding) was calculated for the live singlet cell population for each primary antibody using FlowJo™ v8 software (BD Biosciences, Franklin Lake, NJ). The Bmax and Kd of each primary antibody were calculated using GraphPad Prism Version 9 (GraphPad Software, San Diego, CA)

Experiment [1] has as its target T2, human sodium-dependent phosphate transporter 2B (NaPi2b) (human, UniProt O95436 1-690).
T2 construct: UniProt ID is given as 095436 [sic]; also called hNaPi2b; Hu NaPi2b
T2 sequence: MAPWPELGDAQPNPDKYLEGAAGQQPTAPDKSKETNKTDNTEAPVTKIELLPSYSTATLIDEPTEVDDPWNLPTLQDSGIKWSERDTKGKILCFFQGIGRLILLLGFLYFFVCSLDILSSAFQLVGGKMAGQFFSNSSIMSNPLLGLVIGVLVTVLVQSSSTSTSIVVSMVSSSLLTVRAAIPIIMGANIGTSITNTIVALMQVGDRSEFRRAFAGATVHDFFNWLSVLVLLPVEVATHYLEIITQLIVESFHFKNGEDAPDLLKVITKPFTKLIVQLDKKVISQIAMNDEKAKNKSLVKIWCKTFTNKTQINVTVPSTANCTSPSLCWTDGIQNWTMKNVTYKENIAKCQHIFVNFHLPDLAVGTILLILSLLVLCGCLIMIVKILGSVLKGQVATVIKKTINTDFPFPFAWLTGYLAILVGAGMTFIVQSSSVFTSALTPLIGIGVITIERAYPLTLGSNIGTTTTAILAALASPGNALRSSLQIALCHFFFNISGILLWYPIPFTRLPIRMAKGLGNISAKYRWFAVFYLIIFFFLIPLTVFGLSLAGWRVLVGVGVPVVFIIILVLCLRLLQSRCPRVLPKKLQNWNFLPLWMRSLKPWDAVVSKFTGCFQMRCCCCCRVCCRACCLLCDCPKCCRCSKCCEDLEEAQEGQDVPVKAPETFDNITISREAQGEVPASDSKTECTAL
In words: flow cytometry, HEK293-6e cells transfected with human NaPi2b. As to the method: as §1, §2
On the technique in general: In flow cytometry, cells or beads pass a laser one at a time.

In experiment [2] the target is T2, human sodium-dependent phosphate …. Nature of the experiment: flow cytometry, TOV-21G cells (endogenous NaPi2b); apparent Kd. As to the method: (§3) Briefly, cells were seeded at 50,000 cells/well in conical-bottom 96-well plates and treated with test antibody for 24 hours at 4° C. to prevent internalization. […] Following incubation, cells were washed and stained with anti-Human IgG Fc AF647 conjugate (Jackson Immuno Research Labs, West Grove, PA; Cat. No. 109-605-098) at 4° C. for 30 min. Following incubation and washing, fluorescence was detected by flow cytometry on a BD LSRFortessa™ Cell Analyzer (BD Biosciences, Franklin Lake, NJ) with 1,000 minimum events collected per well. The AF647/APC-A GeoMean (fluorescence signal geometric mean, proportional to anti-Human AF647 binding) was calculated for the live cell population using FlowJo™ Version 10.8.1 (BD Biosciences, Franklin Lake, NJ) and plotted for each test antibody using GraphPad Prism Version 9 (GraphPad Software, San Diego, CA).
(§4) The ability of the humanized antibody variants v38591 and v29456 to bind to NaPi2b expressed on cells was assessed on endogenous NaPi2b-expressing tumor cell lines IGROV-1 (ovarian adenocarcinoma) and TOV-21G (ovarian carcinoma) by flow cytometry.
(§5) Cellular binding was performed according to methods described in Example 13.

Experiment [3] shares this target. Nature of the experiment: flow cytometry on IGROV-1 cells (endogenous NaPi2b), 24 h at 4 C, anti-human IgG Fc AF647 detection. As to the method:
as §3, §4, §5

Experiment [4] has the same target. Nature of the experiment: flow cytometry, IGROV-1 cells (endogenous NaPi2b); apparent Kd. How it is done: as §2
The ability of ADCs to bind to cells expressing NaPi2b was assessed. […] Binding to endogenous high NaPi2b-expressing cell lines IGROV-1 and HCC-78 was assessed by flow cytometry according to methods described in Example 5.

B1: v29456 humanized anti-NaPi2b antibody (H1L2) (antibody, human IgG1, kappa)
heavy: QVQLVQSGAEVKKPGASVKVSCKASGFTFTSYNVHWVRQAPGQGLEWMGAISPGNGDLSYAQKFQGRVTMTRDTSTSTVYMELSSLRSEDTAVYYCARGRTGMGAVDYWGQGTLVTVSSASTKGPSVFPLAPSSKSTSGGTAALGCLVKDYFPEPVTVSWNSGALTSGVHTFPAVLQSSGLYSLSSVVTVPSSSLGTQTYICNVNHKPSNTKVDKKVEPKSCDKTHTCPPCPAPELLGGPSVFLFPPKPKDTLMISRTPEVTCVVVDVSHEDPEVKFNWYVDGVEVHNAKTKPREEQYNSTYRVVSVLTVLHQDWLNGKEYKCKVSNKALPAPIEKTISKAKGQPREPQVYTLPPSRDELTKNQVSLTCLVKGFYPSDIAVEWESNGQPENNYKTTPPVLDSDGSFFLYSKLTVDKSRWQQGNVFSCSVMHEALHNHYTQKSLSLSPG
light: DVQMTQSPSSLSASVGDRVTITCRASQDVYSYLNWYQQKPGKAVKLLIYYTSRLQSGVPSRFSGSGSGTDYTLTISSLQPEDFATYYCQQYNIFPWTFGQGTKLEIKRTVAAPSVFIFPPSDEQLKSGTASVVCLLNNFYPREAKVQWKVDNALQSGNSQESVTEQDSKDSTYSLSSTLTLSKADYEKHKVYACEVTHQGLSSPVTKSFNRGEC
Regarding B1, the values for the Kd (with mouse NaPi2b; in experiment [2]; in experiment [4]) were 10.6 nM, 0.6 nM and 0.65 nM, respectively. In experiment [1], the “Bmax (APC-A GeoMean)” value came to 2540 APC-A GeoMean. Further, the “EC50 (read off the curve)” value in experiment [3] was roughly 1 nM.

In general, EC50 (read off the curve) refers to the concentration giving half of the maximal effect. Higher therefore signals lower potency in that assay.

Source of the values: US20250277030A1 (Zymeworks, published 2025).
